# Molecular target: unlabelled HP1α (human, UniProt P45973 1-191)
# Sequence (P45973 whole entry): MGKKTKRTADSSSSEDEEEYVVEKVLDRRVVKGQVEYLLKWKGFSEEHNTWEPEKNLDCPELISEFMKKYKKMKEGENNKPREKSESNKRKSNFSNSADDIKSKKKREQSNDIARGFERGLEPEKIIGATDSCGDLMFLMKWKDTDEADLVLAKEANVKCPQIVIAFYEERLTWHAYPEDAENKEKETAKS
binder,measurement,value
ARTKQTARKSTGGK (trimethyl-lysine at K9) [H3K9me3 1–14 peptide],Kd,7.57 µM
